Experimental data published in US20250189544A1 (CASI PHARMACEUTICALS, published 2025).

T1: Human CD38 (human, UniProt P28907 1-300)
T1 sequence: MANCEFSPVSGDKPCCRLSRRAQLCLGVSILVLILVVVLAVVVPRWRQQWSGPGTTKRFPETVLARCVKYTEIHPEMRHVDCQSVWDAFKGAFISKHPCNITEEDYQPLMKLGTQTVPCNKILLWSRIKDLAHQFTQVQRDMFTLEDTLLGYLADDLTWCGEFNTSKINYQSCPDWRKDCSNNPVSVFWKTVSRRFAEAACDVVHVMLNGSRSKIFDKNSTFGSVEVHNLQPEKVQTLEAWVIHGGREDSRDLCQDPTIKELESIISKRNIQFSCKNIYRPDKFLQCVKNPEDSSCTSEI


Assays:
Human CD38 [1] = biological target: T1, Human CD38; assay: flow cytometry on red blood cells of Donor 3; negative control
Human CD38 [2] = biological target: T1, Human CD38; assay: flow cytometry on red blood cells of Donor 2; negative control
Human CD38 [3] = biological target: T1, Human CD38; assay: flow cytometry on Ramos cells expressing CD38; negative control, ambiguous regression curve
Human CD38 [4] = biological target: T1, Human CD38; assay: flow cytometry on red blood cells of Donor 1; negative control
Human CD38 [5] = biological target: T1, Human CD38; assay: flow cytometry on Ramos cells expressing CD38
Experimental: (§1) Cell lines/primary cell type used. […] Daudi, Raji, Ramos and cells were cultured in log-phase in RPMI-1640 Medium (ATCC 30-2001) supplemented with 10% FCS, 2 mM L-glutamine, 100 IU/ml penicillin, 100 μg/ml streptomycin and 1 mM sodium pyruvate (all from ThermoFisher) with viability of >85% as determined by automated cell counter (Countess II FL Automated Cell Counter; ThermoFisher; catalog #AMQAF1000) prior to experiments.
(§2) Cell staining and flow cytometry. All experiments were done in triplicates using a 96-well plate format. 50,000 cells were plated in each well of a 96-well round bottom tissue culture treated plate. […] Following a wash step with FACS cell staining buffer, cells were incubated with secondary antibody (rabbit anti-human Fcγ F(ab′)2 labeled with Alexa Fluor647; Jackson ImmunoResearch Catalog #309-606-008) at 5 μg/ml for 30 minutes on ice in the dark. Cells were washed once more with FACS cell staining buffer and analyzed by flow cytometry using a BD Biosciences FACSCalibur flow cytometer (San Jose, CA). FSC vs SSC gating was used to identify cells of interest. A total of 3,000 live single cells were recorded for each sample and corresponding fluorescent signal intensity histograms were analyzed. The mean fluorescence intensity (MFI) was calculated using FlowJo analysis software (Ashland, Oregon) for each antibody concentration.

Human CD38 [6] = biological target: T1, Human CD38; assay: flow cytometry on Daudi cells expressing CD38
Experimental: as §1, §2

Human CD38 [7] = biological target: T1, Human CD38; assay: flow cytometry on Raji cells expressing CD38; text value differs from Table 1 (273)
Experimental: as §1, §2

Human CD38 [8] = biological target: T1, Human CD38; assay: flow cytometry on Raji cells expressing CD38
Experimental: as §1, §2

Row | Max MFI (Human CD38 [1]) [MFI] | Max MFI (Human CD38 [2]) [MFI] | EC50 (Human CD38 [3]) [µg/mL] | Max MFI (Human CD38 [4]) [MFI] | EC50 (Human CD38 [5]) [µg/mL] | EC50 (Human CD38 [6]) [µg/mL] | EC50 (Human CD38 [7]) [µg/mL] | EC50 (Human CD38 [8]) [µg/mL] | Molecule
1 | 1960 | 2110 | 0.001 | 2560 | – | – | – | – | Human IgG1 isotype control antibody
2 | – | – | – | – | 0.412 | 0.382 | 0.373 | 0.273 | CID103 (aCD38-b-348) (antibody, V domains shown) VH: QLQLQESGPGLVKPSETLSLTCTVSGGSISSSDYYWGWIRQPPGKGLEWIGSIYYSGSTYYNPSLKSRVTISVDTSKNQFSLKLSSVTAADTAVYYCARGQYSSGWYAYPFDMWGQGTMVTVSS VL: EIVLTQSPGTLSLSPGERATLSCRASQSVRSSYLAWYQQKPGQAPRLLIYGASSRATGIPDRFSGSGSGTDFTLTISRLEPEDFAVYYCQQDGNVYTFGGGTKVEIK
